# According to IntAct's records for PubMed 15207857:
# B1: Glutamate receptor ionotropic, delta-2 (Mus musculus), Q61625 (parent)
# chain: MEVFPLLLFLSFCWSRTWDLATADSIIHIGAIFDESAKKDDEVFRTAVGDLNQNEEILQTEKITFSVTFVDGNNPFQAVQEACELMNQGILALVSSIGCTSAGSLQSLADAMHIPHLFIQRSTAGTPRSGCGLTRSNRNDDYTLSVRPPVYLNEVILRVVTEYAWQKFIIFYDSEYDIRGIQEFLDKVSQQGMDVALQKVENNINKMITTLFDTMRIEELNRYRDTLRRAILVMNPATAKSFISEVVETNLVAFDCHWIIINEEINDVDVQELVRRSIGRLTIIRQTFPVPQNISQRCFRGNHRISSSLCDPKDPFAQNMEISNLYIYDTVLLLANAFHKKLEDRKWHSMASLSCIRKNSKPWQGGRSMLETIKKGGVNGLTGDLEFGENGGNPNVHFEILGTNYGEELGRGVRKLGCWNPVTGLNGSLTDKKLENNMRGVVLRVVTVLEEPFVMVSENVLGKPKKYQGFSIDVLDALSNYLGFNYEIYVAPDHKYGSPQEDGTWNGLVGELVFKRADIGISALTITPDRENVVDFTTRYMDYSVGVLLRRAEKTVDMFACLAPFDLSLWACIAGTVLLVGLLVYLLNWLNPPRLQMGSMTSTTLYNSMWFVYGSFVQQGGEVPYTTLATRMMMGAWWLFALIVISSYTANLAAFLTITRIESSIQSLQDLSKQTDIPYGTVLDSAVYQHVRMKGLNPFERDSMYSQMWRMINRSNGSENNVLESQAGIQKVKYGNYAFVWDAAVLEYVAINDPDCSFYTVGNTVADRGYGIALQHGSPYRDVFSQRILELQQSGDMDILKHKWWPKNGQCDLYSSVDAKQKGGALDIKSLAGVFCILAAGIVLSCLIAVLETWWSRRKGSRVPSKEDDKEIDLEHLHRRVNSLCTDDDSPHKQFSTSSIDLTPLDIDTLPTRQALEQISDFRNTHITTTTFIPEQIQTLSRTLSAKAASGFAFGSVPEHRTGPFRHRAPNGGFFRSPIKTMSSIPYQPTPTLGLNLGNDPDRGTSI
# B2: Glutamate receptor ionotropic, delta-2 (Mus musculus), Q61625 (parent)
# chain: B1 chain
# partner: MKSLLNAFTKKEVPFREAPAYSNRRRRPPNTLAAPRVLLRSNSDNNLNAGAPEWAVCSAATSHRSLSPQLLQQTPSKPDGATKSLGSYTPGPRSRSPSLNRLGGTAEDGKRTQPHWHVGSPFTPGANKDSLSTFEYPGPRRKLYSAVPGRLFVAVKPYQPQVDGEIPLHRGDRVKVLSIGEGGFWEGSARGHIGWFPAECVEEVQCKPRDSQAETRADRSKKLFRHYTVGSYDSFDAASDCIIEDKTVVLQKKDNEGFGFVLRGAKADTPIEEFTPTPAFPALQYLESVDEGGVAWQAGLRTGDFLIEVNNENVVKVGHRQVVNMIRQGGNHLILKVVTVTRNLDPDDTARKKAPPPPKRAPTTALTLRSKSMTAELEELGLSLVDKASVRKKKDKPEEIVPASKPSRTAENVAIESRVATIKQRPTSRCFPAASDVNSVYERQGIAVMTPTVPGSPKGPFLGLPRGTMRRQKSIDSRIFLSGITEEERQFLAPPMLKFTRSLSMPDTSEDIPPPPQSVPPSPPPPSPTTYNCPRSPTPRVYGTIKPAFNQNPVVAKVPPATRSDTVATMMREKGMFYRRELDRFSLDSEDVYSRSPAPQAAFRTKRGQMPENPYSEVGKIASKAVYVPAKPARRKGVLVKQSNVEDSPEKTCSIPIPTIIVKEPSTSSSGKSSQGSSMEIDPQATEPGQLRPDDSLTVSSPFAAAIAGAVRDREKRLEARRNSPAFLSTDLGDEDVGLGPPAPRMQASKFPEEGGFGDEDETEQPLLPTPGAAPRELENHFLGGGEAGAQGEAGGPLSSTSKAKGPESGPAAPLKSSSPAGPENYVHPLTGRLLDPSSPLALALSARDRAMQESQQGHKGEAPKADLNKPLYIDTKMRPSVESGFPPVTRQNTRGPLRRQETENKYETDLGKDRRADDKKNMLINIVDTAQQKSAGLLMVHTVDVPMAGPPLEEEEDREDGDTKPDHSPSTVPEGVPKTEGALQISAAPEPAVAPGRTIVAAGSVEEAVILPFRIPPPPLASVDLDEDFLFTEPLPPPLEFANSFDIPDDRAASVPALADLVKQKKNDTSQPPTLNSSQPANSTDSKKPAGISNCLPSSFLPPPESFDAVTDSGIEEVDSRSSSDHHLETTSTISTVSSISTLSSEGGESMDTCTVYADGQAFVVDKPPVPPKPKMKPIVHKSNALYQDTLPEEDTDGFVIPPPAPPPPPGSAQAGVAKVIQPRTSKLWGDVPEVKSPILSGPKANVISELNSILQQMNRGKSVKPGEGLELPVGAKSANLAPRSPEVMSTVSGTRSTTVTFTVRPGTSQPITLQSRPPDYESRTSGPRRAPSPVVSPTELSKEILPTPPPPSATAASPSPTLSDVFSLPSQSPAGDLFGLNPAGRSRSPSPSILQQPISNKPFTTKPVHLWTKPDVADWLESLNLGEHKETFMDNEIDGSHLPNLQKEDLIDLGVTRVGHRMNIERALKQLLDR
# Variants of: B1
# Conditions: with shan1_rat Shank1, Q9WV48
# Sequence of shan1_rat Shank1, Q9WV48 (Q9WV48 whole entry): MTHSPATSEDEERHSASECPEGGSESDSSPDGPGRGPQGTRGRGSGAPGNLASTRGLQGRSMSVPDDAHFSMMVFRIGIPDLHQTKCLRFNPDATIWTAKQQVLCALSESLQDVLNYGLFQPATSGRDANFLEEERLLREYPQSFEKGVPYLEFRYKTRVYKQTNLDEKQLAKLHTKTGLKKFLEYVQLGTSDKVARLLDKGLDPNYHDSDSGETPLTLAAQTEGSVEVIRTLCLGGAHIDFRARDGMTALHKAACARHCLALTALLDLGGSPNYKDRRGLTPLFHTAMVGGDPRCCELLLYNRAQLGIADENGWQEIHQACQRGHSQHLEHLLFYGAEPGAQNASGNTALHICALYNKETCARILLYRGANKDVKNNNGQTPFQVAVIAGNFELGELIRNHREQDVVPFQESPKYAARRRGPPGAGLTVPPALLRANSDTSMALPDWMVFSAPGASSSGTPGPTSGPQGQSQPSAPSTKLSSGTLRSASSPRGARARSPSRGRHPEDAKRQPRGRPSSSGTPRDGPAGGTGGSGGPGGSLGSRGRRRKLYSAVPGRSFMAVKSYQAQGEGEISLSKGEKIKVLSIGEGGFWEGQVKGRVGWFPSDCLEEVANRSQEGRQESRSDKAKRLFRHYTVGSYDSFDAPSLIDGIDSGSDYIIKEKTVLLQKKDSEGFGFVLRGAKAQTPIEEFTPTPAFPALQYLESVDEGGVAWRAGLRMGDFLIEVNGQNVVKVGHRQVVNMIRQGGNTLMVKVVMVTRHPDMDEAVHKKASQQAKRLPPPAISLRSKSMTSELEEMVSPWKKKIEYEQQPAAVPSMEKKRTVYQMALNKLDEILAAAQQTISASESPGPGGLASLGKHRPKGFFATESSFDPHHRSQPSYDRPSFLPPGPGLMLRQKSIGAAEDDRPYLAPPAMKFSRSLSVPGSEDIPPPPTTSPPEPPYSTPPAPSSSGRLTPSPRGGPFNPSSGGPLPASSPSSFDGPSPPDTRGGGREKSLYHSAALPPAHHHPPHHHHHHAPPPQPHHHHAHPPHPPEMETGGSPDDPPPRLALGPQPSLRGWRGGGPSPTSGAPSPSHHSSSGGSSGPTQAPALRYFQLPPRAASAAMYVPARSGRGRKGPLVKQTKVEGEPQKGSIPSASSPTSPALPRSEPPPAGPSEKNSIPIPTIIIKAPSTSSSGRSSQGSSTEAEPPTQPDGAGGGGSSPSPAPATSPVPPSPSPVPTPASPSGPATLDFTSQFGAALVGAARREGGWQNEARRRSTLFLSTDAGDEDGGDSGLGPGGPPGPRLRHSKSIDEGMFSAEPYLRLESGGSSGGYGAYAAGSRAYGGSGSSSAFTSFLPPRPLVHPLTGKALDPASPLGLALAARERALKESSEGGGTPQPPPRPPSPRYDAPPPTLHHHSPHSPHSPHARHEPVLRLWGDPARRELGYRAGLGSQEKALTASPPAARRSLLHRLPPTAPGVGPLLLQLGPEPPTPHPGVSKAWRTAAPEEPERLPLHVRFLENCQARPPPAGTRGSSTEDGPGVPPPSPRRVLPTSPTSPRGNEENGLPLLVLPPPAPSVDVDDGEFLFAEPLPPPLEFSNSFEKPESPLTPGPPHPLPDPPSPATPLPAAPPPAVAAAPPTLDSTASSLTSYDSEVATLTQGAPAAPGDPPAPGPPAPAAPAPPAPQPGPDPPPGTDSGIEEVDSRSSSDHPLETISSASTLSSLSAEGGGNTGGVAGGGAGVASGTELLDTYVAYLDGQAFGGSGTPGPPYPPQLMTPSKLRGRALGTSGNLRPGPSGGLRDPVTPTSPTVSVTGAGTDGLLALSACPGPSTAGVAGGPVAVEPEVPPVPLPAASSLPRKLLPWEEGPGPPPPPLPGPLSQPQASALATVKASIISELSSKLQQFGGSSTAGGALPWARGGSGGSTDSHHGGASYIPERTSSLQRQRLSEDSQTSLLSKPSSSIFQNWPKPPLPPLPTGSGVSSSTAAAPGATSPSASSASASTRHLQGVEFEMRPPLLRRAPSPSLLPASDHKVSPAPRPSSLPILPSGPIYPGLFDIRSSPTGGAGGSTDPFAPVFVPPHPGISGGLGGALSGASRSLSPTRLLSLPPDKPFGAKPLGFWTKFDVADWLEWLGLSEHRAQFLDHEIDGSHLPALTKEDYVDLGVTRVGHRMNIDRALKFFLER
row,effect of a mutation on the interaction,Variant
1,disrupting interaction,S920A
2,disrupting interaction,T930A;F932A
3,decreasing interaction,T930A

# Variants of: B2
# Conditions: with shan2_mouse Shank2, Q80Z38
row,effect of a mutation on the interaction,Variant
1,decreasing interaction,T930A;F932A
2,decreasing interaction,T930A
3,disrupting interaction,S920A

# Variants of: B2
# Conditions: with shan2_mouse Shank2, Q80Z38
# Remark: another data set of the same source
row,effect of a mutation on the interaction,Variant
1,disrupting interaction,S920A;T930A;F932A
